From PMC2668526 (Bioorganic & medicinal chemistry, 2008)
Values joined by “and” are separate entries in the source; they are usually repeats but may differ in a detail not shown here. Equal entries are not always repeated.

Assays:
Assay in all cases: purified protein, by the assay type
Details in all cases: other: O2 consumption, 5.0 mM ascorbate, pH 6.0, 37 °C
[1] = substrate: O=C(O)CNC(=O)c1c(F)cccc1F
[2] = substrate: O=C(O)CNC(=O)/C=C/c1ccccc1
[3] = substrate: O=C(O)CNC(=O)CNC(=O)CNC(=O)c1ccccc1
[4] = substrate: O=C(O)CNC(=O)CCCCCc1ccccc1
[5] = substrate: Nc1ccc(C(=O)NCC(=O)O)cc1
[6] = substrate: O=C(O)CNC(=O)CCCc1ccccc1
[7] = substrate: O=C(O)CNC(=O)/C=C/c1ccco1
[8] = substrate: O=C(O)CNC(=O)c1cccs1
[9] = substrate: C[C@@H](NC(=O)c1ccccc1)C(=O)O
[10] = substrate: CCc1ccc(C(=O)NCC(=O)O)cc1
[11] = substrate: CC(C)CCC(=O)NCC(=O)O
[12] = substrate: O=C(O)CNC(=O)[C@@H]1CCC(=O)N1
[13] = substrate: Cc1cccc(C(=O)NCC(=O)O)c1
[14] = substrate: O=C(O)CNC(=O)c1ccccc1I
[15] = substrate: C[C@@H](NC(=O)OCc1ccccc1)C(=O)O
[16] = substrate: O=C(O)CNC(=O)SCc1ccccc1
[17] = substrate: O=C(O)CNC(=S)CCc1ccccc1
[18] = substrate: O=C(O)CNC(=O)c1ccc([N+](=O)[O-])cc1
[19] = substrate: O=C(O)CNC(=O)Nc1ccccc1
[20] = substrate: O=C(O)CNC(=O)c1ccc(Cl)cc1

B1: rat PAM (Rattus norvegicus) (protein)
chain: FKETTRSFSNECLGTIGPVTPLDASDFALDIRMPGVTPKESDTYFCMSMRLPVDEEAFVIDFKPRASMDTVHHMLLFGCNMPSSTGSYWFCDEGTCTDKANILYAWARNAPPTRLPKGVGFRVGGETGSKYFVLQVHYGDISAFRDNHKDCSGVSVHLTRVPQPLIAGMYLMMSVDTVIPPGEKVVNADISCQYKMYPMHVFAYRVHTHHLGKVVSGYRVRNGQWTLIGRQNPQLPQAFYPVEHPVDVTFGDILAARCVFTGEGRTEATHIGGTSSDEMCNLYIMYYMEAKYALSFMTCTKNVAPDMFRTIPAEANIPIPVKPDMVMMHGHHKEAENKEKSALMQQPKQGEEEVLEQDFHVEEELDWPGVYLLPGQVSGVALDSKNNLVIFHRGDHVWDGNSFDSKFVYQQRGLGPIEEDTILVIDPNNAEILQSSGKNLFYLPHGLSIDTDGNYWVTDVALHQVFKLDPHSKEGPLLILGRSMQPGSDQNHFCQPTDVAVEPSTGAVFVSDGYCNSRIVQFSPSGKFVTQWGEESSGSSPRPGQFSVPHSLALVPHLDQLCVADRENGRIQCFKTDTKEFVREIKHASFGRNVFAISYIPGFLFAVNGKPYFGDQEPVQGFVMNFSSGEIIDVFKPVRKHFDMPHDIVASEDGTVYIGDAHTNTVWKFTLTEKMEHRSV
[1]
  Km: 19000 ± 4000 µM
  kcat: 4.3 ± 0.6 s⁻¹
  kcat/Km: 230 ± 20 M⁻¹ s⁻¹
[2]
  Km: 230 ± 20 µM
  kcat: 8.4 ± 0.3 s⁻¹
  kcat/Km: 36000 ± 3000 M⁻¹ s⁻¹
[3]
  Km: 310 ± 60 µM
  kcat: 8.8 ± 1.3 s⁻¹
  kcat/Km: 29000 ± 2000 M⁻¹ s⁻¹
[4]
  Km: 0.051 ± 0.007 0.043 ± 0.005 mM
  kcat: 11 ± 0.4 s⁻¹
  kcat/Km: 200000 ± 20000 M⁻¹ s⁻¹
[5]
  Km: 2600 ± 200 µM
  kcat: 5.6 ± 0.2 s⁻¹
  kcat/Km: 2200 ± 100 M⁻¹ s⁻¹
[6]
  Km: 160 ± 20 µM
  kcat: 11 ± 0.4 s⁻¹
  kcat/Km: 70000 ± 7000 M⁻¹ s⁻¹
[7]
  Km: 1200 ± 100 µM
  kcat: 3.4 ± 0.1 s⁻¹
  kcat/Km: 2800 ± 100 M⁻¹ s⁻¹
[8]
  Km: 1600 ± 100 µM
  kcat/Km: 6000 ± 300 M⁻¹ s⁻¹
[9]
  Km: 84000 ± 23000 µM
  kcat: 0.27 ± 0.03 s⁻¹
  kcat/Km: 3.2 ± 0.6 M⁻¹ s⁻¹
[10]
  Km: 1200 ± 200 µM
  kcat: 3.6 ± 0.3 s⁻¹
  kcat/Km: 3100 ± 500 M⁻¹ s⁻¹
[11]
  Km: 280 ± 30 µM
  kcat: 6.6 ± 0.3 s⁻¹
  kcat/Km: 23000 ± 2000 M⁻¹ s⁻¹
[12]
  Km: 300 µM and 310 ± 30 µM
[13]
  Km: 1400 ± 100 µM
  kcat: 6.4 ± 0.2 s⁻¹
  kcat/Km: 4700 ± 200 M⁻¹ s⁻¹
[14]
  Km: 3400 ± 400 µM
  kcat: 3.1 ± 0.1 s⁻¹
  kcat/Km: 910 ± 70 M⁻¹ s⁻¹
[15]
  Km: 35000 ± 5000 µM
  kcat: 1.4 ± 0.1 s⁻¹
  kcat/Km: 41 ± 5 M⁻¹ s⁻¹
[16]
  Km: 59 ± 7 µM
  kcat: 0.69 ± 0.022 s⁻¹
  kcat/Km: 12000 ± 1400 M⁻¹ s⁻¹
[17]
  Km: 0.038 ± 0.02 0.023 ± 0.002 mM
  kcat: 1.6 ± 0.2 s⁻¹
  kcat/Km: 42000 ± 14000 M⁻¹ s⁻¹
[18]
  Km: 470 ± 10 µM
  kcat: 4.2 ± 0.04 s⁻¹
  kcat/Km: 8900 ± 200 M⁻¹ s⁻¹
[19]
  Km: 0.36 ± 0.08 0.45 ± 0.05 mM
  kcat: 9.7 ± 0.9 s⁻¹
  kcat/Km: 27000 ± 4000 M⁻¹ s⁻¹
[20]
  Km: 620 ± 40 µM
  kcat: 4.1 ± 0.1 s⁻¹
  kcat/Km: 6600 ± 200 M⁻¹ s⁻¹
